Consider 30 sequences from the supplement of paper PMC9170038.

In data set [1] the test system is MS2 coat protein. The experiment in a line: apparent KD of MS2 coat protein, switch OFF state (with FMN for OFF switches, without FMN for ON switches); designed switch direction (-1 OFF switch, 1 ON switch): -1; higher = weaker reporter binding. As to conditions: FMN input: 0 or 200 uM; Eterna round: R93 (includes R88 designs). The procedure, abridged: (§1)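 Each design's apparent KD comes from the median of binding-curve fits to its normalised clusters. Those clusters carried RNA switches transcribed on-chip from Illumina sequencing clusters. SNAP-549-labelled MS2 coat protein was titrated onto them in twofold steps (0.7 or 1.5 nM to 3 µM; per step 0.8–1.5 h down to 10–20 min). Conditions were 100 mM Tris-HCl pH 7.5, 80 mM KCl, 4 mM MgCl2, without or with constant ligand.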

Data set [2] relates to MS2 coat protein. The data set can be described thus: apparent KD of MS2 coat protein, switch ON state; designed switch direction (-1 OFF switch, 1 ON switch): -1; higher = weaker reporter binding. As to conditions: FMN input: 0 or 200 uM; Eterna round: R93 (includes R88 designs). The procedure, abridged:
as §1

Regarding “AUCAUGUAAGGAUAUUUAAGAAAAGAAAAGAAAGAAAAGAAAAAGAAGGUACAUGAGGAUCACCCAUGUAAGAA [EteRNA is fun!]”, the “apparent KD of MS2 coat protein” value in data set [1] worked out at 18.9 nM; in data set [2] it was 27.1 nM.

For the sequence “AUCGAUCGAGGAUAUACAUGAGGAUCACCCAUGUAAAAAAAAAAAAAGUCCUCAGGACGUAGAAGGCGACGCAA [JR_Exc003_Sub401]”, the “apparent KD of MS2 coat protein” value came out at 22.3 nM in data set [1] and 16.6 nM in data set [2].

As for “AUCUUGUCAGGAUAUGACUACAUAAAAAAUAAAAAAUGUAGUCAGAAGGGACAUGAGGAUCACCCAUGUACCAA [Mat - Exclusion 4 - Eli mod - D96]”, the “apparent KD of MS2 coat protein” value amounted to 22.3 nM in data set [1] and 20.4 nM in data set [2].

“AUGUACCUAGGAUAUACAUGAGGAUCACCCAUGUACUGGGAGCAAUCAAGUUAAUAUUGUAGAAGGAGGUGAAA [JR_Exc003_Sub315]”: the “apparent KD of MS2 coat protein” value in data set [1] amounted to 58.6 nM; in data set [2] it was 20.1 nM.

Take “AUGUAGGGAGGAUAUACAUAGAUACAGAUUCAUGUGGAACUACAUGAGGAUCACCCAUGUAGAAGGCCCUAAAA [Mat - Same state - Mayanna Mod - D125]”: the entries for the “apparent KD of MS2 coat protein” value in data set [1] and in data set [2] were 117 nM and 27.4 nM, respectively.

Consider “AUUAUGUCAGGAUAUCAGUAGUAAAAAAAAAAAAUUACUACUGAGAAGGGACAUGAGGAUCACCCAUGUCAAAA [EX4 308: Super Stable 8]”, for which the figures for the “apparent KD of MS2 coat protein” value in data set [1] and in data set [2] were 34 nM and 39 nM, respectively.

Regarding “CAAAGGUGAGGAUAUACAAAACUAUGACGAAAGUCAUAAAAACAUGAGGAUCACCCAUGUAGAAGGCACCACAA [E2 64% 2]”, the “apparent KD of MS2 coat protein” value in data set [1] amounted to 23.7 nM; in data set [2], 31.6 nM.

In the case of “CACGUACAUGAGGAUCACCCAUGUUAGGAUAUGCCGGGUAAGAGAAAACAAAAAAUCAGCAGAAGGAACGAAAC [Bilbo Confounded 18 - Jieux - Exclusion 1]”, the “apparent KD of MS2 coat protein” value in data set [1] amounted to 28.5 nM; in data set [2], 28.2 nM.

In the case of “CAGUACUGAGGAUAUACAUGAGGAUCACCCAUGUAUCAAAGCUAGGAAACUAGCACAUGUAGAAGGCAGUACUG [Ex3: 823]”, the “apparent KD of MS2 coat protein” value in data set [1] came out at 132 nM; in data set [2], 25.7 nM.

For “CAGUACUGAGGAUAUACAUGAGGAUCACCCAUGUGGUCAAGCUAGGAAACUAGCAAAUGUAGAAGGCAGUACUG [Ex3: 812]”, the “apparent KD of MS2 coat protein” value is 35.6 nM in data set [1] and 80.9 nM in data set [2].

As to “CCAGAUGCAGGAUAUACAUGAGGAUCACCCAUGUGGCACACACCCACCCACAGCACCCGUAGAAGGGCAGCACG [Halfast on Cytosine - Jieux - Exclusion 3]”, the “apparent KD of MS2 coat protein” value is 25.9 nM in data set [1] and 27 nM in data set [2].

“CCUGGCUUAGGAUAUACAGGAACCGGGAACCCGGAAGUGAAACAUGAGGAUCACCCAUGUAGAAGGAAGAAAGC [Leusanzaus]”: the “apparent KD of MS2 coat protein” value in data set [1] turned out to be 19.1 nM; in data set [2] it was 23.9 nM.

For “CGUCCACAUGAGGAUCACCCAUGUUAGGAUAUCUAUACUAAAUACAAAACCCAAGUCAAGAGAAGGAGCAGGGC [Teteeresve]”, the “apparent KD of MS2 coat protein” value in data set [1] stood at 12 nM; in data set [2] it was 13.9 nM.

Turning to “CGUUGGCGAGGAUAUACAUGAGGAUCACCCAUGUGAGAGAAAAAAGUGAGAAAGAAAAGUAGAAGGCGCUGACC [salish99-ex3-13]”, the “apparent KD of MS2 coat protein” value is 162 nM in data set [1] and 45.1 nM in data set [2].

For “CUCAAGUCAGGAUAUAUAAGAAAAGAAGAGAAAGAAAAGAAAUAGAAGGGACAUGAGGAUCACCCAUGUAAGAA [EteRNA is fun!]”, the “apparent KD of MS2 coat protein” value in data set [1] was found to be 36.9 nM; in data set [2] it was 34.5 nM.

As for “CUCAAGUCAGGAUAUUAAAGAAAAGAAGAGAAAGAAAAGAAUAAGAAGGGACAUGAGGAUCACCCAUGUAAGAA [EteRNA is fun!]”, the “apparent KD of MS2 coat protein” value was found to be 30.9 nM in data set [1] and 57.3 nM in data set [2].

As for “CUCAAGUUAGGAUAUGAAAGAAAAGAAGAGAAAGAAAAGAAUCAGAAGGAACAUGAGGAUCACCCAUGUAAGAA [EteRNA is fun!]”, the “apparent KD of MS2 coat protein” value came to 19.5 nM in data set [1] and 29.7 nM in data set [2].

As to “CUCAUGUCAGGAUAUCAGUAGUAAAAAAAAAAAAUUACUACUGAGAAGGGACAUGAGGAUCACCCAUGUACCUU [EX4 302: Super Stable 2]”, the figures for the “apparent KD of MS2 coat protein” value in data set [1] and in data set [2] were 29.1 nM and 25.4 nM, respectively.

Turning to “CUCAUGUCAGGAUAUCAGUAGUAAAAAAAUAAAAUUACUACUGAGAAGGGACAUGAGGAUCACCCAUGUCAAAA [EX4 363: Super Stable 63]”, the “apparent KD of MS2 coat protein” value in data set [1] turned out to be 19.8 nM; in data set [2], 20.7 nM.

In the case of “CUCAUGUCAGGAUAUCCAUGAAAUGAAGUGAAAGAAAAGAAGGAGAAGGGACAUGAGGAUCACCCAUGUUAGAA [EteRNA is fun!]”, the “apparent KD of MS2 coat protein” value in data set [1] was 17.1 nM; in data set [2], 34.1 nM.

For “CUCAUGUUAGGAUAUAUAUGAAAUGAAGUGAAAGAAAAGAAAUAGAAGGAACAUGAGGAUCACCCAUGUUAGAA [EteRNA is fun!]”, the “apparent KD of MS2 coat protein” value in data set [1] turned out to be 32.6 nM; in data set [2] it was 51 nM.

“CUCUAGUCAGGAUAUGCAAGAAAAGAAGAGAAAGAAAAGAAGCAGAAGGGACAUGAGGAUCACCCAUGUAAGAA [EteRNA is fun!]”: the “apparent KD of MS2 coat protein” value in data set [1] is 83.4 nM; in data set [2] it was 51.3 nM.

With “CUCUAGUGAGGAUAUCCAAGAAAAGAAGAGAAAGAAAAGAAGGAGAAGGCACAUGAGGAUCACCCAUGUAAGAA [EteRNA is fun!]”, the “apparent KD of MS2 coat protein” value in data set [1] turned out to be 35.8 nM; in data set [2], 44.1 nM.

Regarding “CUCUUGUCAGGAUAUCCAAGAAAAGAAAAGAAAGAAAAGAAGGAGAAGGGACAUGAGGAUCACCCAUGUAAGAA [EteRNA is fun!]”, the results for the “apparent KD of MS2 coat protein” value in data set [1] and in data set [2] were 113 nM and 72.3 nM, respectively.

For the sequence “CUCUUGUCAGGAUAUUGAAGAAAAGAAAAGAAAGAAAAGAACAAGAAGGGACAUGAGGAUCACCCAUGUAAGAA [EteRNA is fun!]”, the “apparent KD of MS2 coat protein” value stood at 60.7 nM in data set [1] and 74.2 nM in data set [2].

With “CUCUUGUGAGGAUAUCGAAGAAAAGAAAAGAAAGAAAAGAACGAGAAGGCACAUGAGGAUCACCCAUGUAAGAA [EteRNA is fun!]”, the “apparent KD of MS2 coat protein” value was determined as 61.8 nM in data set [1] and 53.1 nM in data set [2].

With “GAAAAACAUGAGGAUCACCCAUGUAAGGAUAUGCUAAAAAACGCAAAAAAAGCGAAUAGCAGAAGGUACAAAAA [Mat - Exclusion 1 - Eli mod - D83]”, the “apparent KD of MS2 coat protein” value in data set [1] was determined as 33.4 nM; in data set [2], 20.6 nM.

As for “GAAAACAGAGGAUAUACGGGAUUGACACGAAAAGUGCAAAAACAUGAGGAUCACCCAUGUAGAAGGCUGAAGAA [Meechl MS2... 60% 2]”, the “apparent KD of MS2 coat protein” value was 42.5 nM in data set [1] and 31.5 nM in data set [2].

On to “GAAAAGGCAGGAUAUGCAAGGAUAUAGAAGGAAAAAAAAAAACAUGAGGAUCACCCAUGUAGAAGGGCCAAAAG [salish99-ex2-10]”, for which the entries for the “apparent KD of MS2 coat protein” value in data set [1] and in data set [2] were 33.5 nM and 57.2 nM, respectively.

With “GAAAAGUCAGGAUAUAUGCGAAAAAUAAAAAAAAUAAAAACAUAGAAGGGACAUGAGGAUCACCCAUGUUAAAA [Mat - Exclusion 4 - Mayanna - D134]”, the “apparent KD of MS2 coat protein” value in data set [1] turned out to be 29.7 nM; in data set [2], 41.6 nM.
